US20220193132A1 (NATIONAL RESEARCH COUNCIL OF CANADA, published 2022)

Columns and labels:
[1] = target: T1, recombinant human wild type EGFR protein (extracellular domain), native (human, UniProt P00533 25-645); assay: ELISA on recombinant antigen
T1 construct: also called wt EGFR; EGFR WT
Method: (§1) Pre- and post-immune sera titers of animals were assessed by ELISA on recombinant EGFRvIII protein. Unless otherwise stated, all incubations were performed at room temperature. […] Microplates were washed three times in PBS and blocked for 30 min with PBS containing 1% bovine serum albumin (BSA, Sigma Cat #A7030). Blocking buffer was removed and 25 μl of serial dilutions of sera samples were added. […] After a 1-h incubation, microplates were washed 4 times and 25 μl of p-nitrophenyl phosphate (pNPP) substrate (Sigma-Aldrich Canada Co., Oakville, ON) at 1 mg/ml in carbonate buffer at pH 9.6 was added and further incubated for 30 min.
(§2) Antigens at 1-2 mg/ml were incubated at 95° C. for 5 min in PBS containing DTT at a final concentration of 40 mM. They were then incubated on ice for 5 min and diluted at their final coating concentration for ELISA purpose.
(§3) ELISA was performed as described above (serum titer determination) using 25 μl of mAb supernatant (Exp 1) or purified mAb at 1 μg/ml (Exp 2).

[2] = target: T2, recombinant human wild type EGFR protein (extracellular domain), denatured (human, UniProt P00533 25-645); assay: ELISA on recombinant antigen
T2 construct: Same protein as m23 after 95 C for 5 min in PBS with 40 mM DTT (denatured, reduced); also called wt EGFR Denatured
Method: as §1, §2, §3

[3] = target: T1, recombinant human wild type EGFR …; assay: ELISA Exp 1, mAb supernatant
Method: as §1, §2, §3

[4] = target: T3, recombinant human EGFRvIII protein (extracellular domain), native (human, UniProt P00533 298-623); assay: ELISA Exp 1, mAb supernatant
T3 construct: also called hEGFRvIII
Method: as §1, §2, §3

[5] = target: T4, recombinant human EGFRvIII protein (extracellular domain), denatured (human, UniProt P00533 298-623); assay: ELISA Exp 1, mAb supernatant
T4 construct: Same protein as m21 after 95 C for 5 min in PBS with 40 mM DTT (denatured, reduced); also called EGFRvIII Denatured
Method: as §1, §2, §3

[6] = target: T2, recombinant human wild type EGFR …; assay: ELISA Exp 1, mAb supernatant
Method: as §1, §2, §3

[7] = target: T5, wild type human EGFR, full length, overexpressed on U87MG cells (human, UniProt P00533 25-1210); assay: flow cytometry dose-response, U87MG-EGFRwt cells
T5 construct: also called U87MG-EGFR wt; U87 WT
Method: (§4) Prior to analysis, cells were plated such that they were not more than 80% confluent on the day of analysis. Unless otherwise stated, all media are kept are 4° C. and all incubations are performed on wet ice. Cells were washed in PBS, harvested by the addition of cell dissociation buffer (Sigma), centrifuged and resuspended in complete medium at a cell density of 2×10⁶ cells/mL. Fifty μL/well of cells were distributed in a polypropylene v-bottom 96 well plate and serial 1/3 dilutions of purified mAbs starting at 100 nM were added and incubated for 2 hours. […] Cells were washed and re-suspended in medium containing Propidium iodide to exclude dead cells from analysis. Samples were filtered through a 60 μm nylon mesh filter plate (Millipore, Ireland) to remove cell aggregates. Flow cytometry analyses were performed on 2,000 viable single-cells events gated on forward scattering, side scattering parameters and propidium iodide dye exclusion using a BD-LSRFortessa flow cytometer (Becton-Dickinson Biosciences, CA, USA) and a standard filter set using BD FACSDiva™ acquisition software, according to manufacturer's instructions.
(§5) Specific detection of antibody binding was calculated as the mean fluorescent intensity of binding to each primary antibody after background level subtraction of the mean fluorescent intensity of binding of mouse IgG control. The data were analyzed with GraphPad Prism v 6.0 software using one-site specific binding with Hill slope non-linear regression curve fit model to determine Bmax (maximum specific binding) and Kdₐₚₚ (concentration needed to achieve a half-maximum binding at equilibrium) for each mAb tested.

[8] = target: T1, recombinant human wild type EGFR …; assay: ELISA Exp 2, purified mAb 1 ug/ml;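 note: ELISA of purified mAb binding to plate-coated antigen, native or heat/DTT-denatured, with pNPP substrate developed for 30 min and incubations at room temperature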
[9] = target: T3, recombinant human EGFRvIII protein …; assay: ELISA Exp 2, purified mAb 1 ug/ml;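 note: ELISA of purified mAb binding to plate-coated antigen, native or heat/DTT-denatured, with pNPP substrate developed for 30 min and incubations at room temperature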
[10] = target: T4, recombinant human EGFRvIII protein …; assay: ELISA Exp 2, purified mAb 1 ug/ml;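 note: ELISA of purified mAb binding to plate-coated antigen, native or heat/DTT-denatured, with pNPP substrate developed for 30 min and incubations at room temperature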
[11] = target: T2, recombinant human wild type EGFR …; assay: ELISA Exp 2, purified mAb 1 ug/ml;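 note: ELISA of purified mAb binding to plate-coated antigen, native or heat/DTT-denatured, with pNPP substrate developed for 30 min and incubations at room temperature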
[12] = target: T6, EGFRvIII, full length, overexpressed on glioblastoma cells (human, UniProt P00533 298-623); assay: flow cytometry dose-response on U87MG-EGFRvIII cells, apparent Kd
T6 construct: Cells overexpress full length EGFRvIII (deletion of exons 2-7 of EGFR); Cell line (U87MG or DKMG) is named under assay; also called U87MG-EGFRvIII; U87vIII
Method: as §4, §5

[13] = target: T7, EGFRvIII fragment amino acid residues 15 to 37, displayed on yeast (human); assay: yeast surface display, flow cytometry
T7 construct: also called aa 15-37; fragment 15-37
T7 peptide: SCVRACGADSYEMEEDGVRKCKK

[14] = target: T8, EGFRvIII amino acid residues 15 to 37 with Val32 to Ala mutation (human); assay: yeast display flow cytometry, alanine scan
T8 construct: mutation is already in the entry
T8 peptide: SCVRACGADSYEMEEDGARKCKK
From the text: (§6) Assessment of the binding of anti-EGFRvIII mAbs to the fusion proteins expressed on yeast cell surface was done by flow cytometry analysis. Briefly, yeast cells were labeled with both the anti-hEGFRvIII mAb and chicken anti-Myc antibody, the latter being used to monitor the level of expression of the fusion protein. Following a wash step, binding of the primary antibodies is probed by a two-color indirect fluorescence labeling using secondary antibodies specific for mouse and chicken antibodies, respectively.
(§7) To further characterize mAb epitopes within the EGFRvIII 15-37 region, an alanine scan of this region was performed, and modified fragments were expressed at the surface of the yeast. […] The resulting peptides were expressed at the surface of the yeast and each anti-EGFRvIII mAbs was tested on the corresponding yeast mutant strain by flow cytometry analysis. Thus, this assay determined the contribution of each amino acid(s) in the monoclonal antibody binding.

[15] = target: T9, EGFRvIII amino acid residues 15 to 37 with Lys34 to Ala mutation (human); assay: yeast display flow cytometry, alanine scan
T9 construct: mutation is already in the entry
T9 peptide: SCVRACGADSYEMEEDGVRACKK
From the text: as §6, §7

[16] = target: T10, EGFRvIII amino acid residues 15 to 37 with Lys36 to Ala mutation (human); assay: yeast display flow cytometry, alanine scan
T10 construct: mutation is already in the entry
T10 peptide: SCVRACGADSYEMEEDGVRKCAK
From the text: as §6, §7

[17] = target: T11, EGFRvIII amino acid residues 15 to 37 with Cys35 to Ala mutation (human); assay: yeast display flow cytometry, alanine scan
T11 construct: mutation is already in the entry
T11 peptide: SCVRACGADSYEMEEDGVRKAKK
From the text: as §6, §7

[18] = target: T12, EGFRvIII amino acid residues 15 to 37 with Glu26 to Ala mutation (human); assay: yeast display flow cytometry, alanine scan
T12 construct: mutation is already in the entry
T12 peptide: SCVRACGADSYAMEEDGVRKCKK
From the text: as §6, §7

[19] = target: T13, EGFRvIII amino acid residues 15 to 37 with Arg33 to Ala mutation (human); assay: yeast display flow cytometry, alanine scan
T13 construct: mutation is already in the entry
T13 peptide: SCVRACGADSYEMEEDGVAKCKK
From the text: as §6, §7

[20] = target: T6, EGFRvIII, full length, overexpressed on …; assay: cell-based or functional assay
[21] = target: T6, EGFRvIII, full length, overexpressed on …; assay: cell-based or functional assay; remark: listed apart in the source
[22] = target: T14, EGFRvIII amino acid residues 15 to 37 with Met27 to Ala mutation (human); assay: yeast display flow cytometry, Myc-normalized;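 note: Anti-EGFRvIII monoclonal antibodies tested by flow cytometry on yeast displaying alanine-substituted fragments, two-color indirect fluorescence with anti-Myc signal tracking fusion protein expression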
T14 construct: mutation is already in the entry
T14 sequence (peptide, as listed by the source, change not shown): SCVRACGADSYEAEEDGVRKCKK
From the text: as §6, §7

[23] = target: T15, EGFRvIII amino acid residues 15 to 37 with Val17 to Ala mutation (human); assay: yeast display flow cytometry, Myc-normalized;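 note: Anti-EGFRvIII monoclonal antibodies tested by flow cytometry on yeast displaying alanine-substituted fragments, two-color indirect fluorescence with anti-Myc signal tracking fusion protein expression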
T15 construct: mutation is already in the entry
T15 peptide: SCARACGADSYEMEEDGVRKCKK
From the text: as §6, §7

[24] = target: T16, EGFRvIII amino acid residues 15 to 37 with Ser24 to Ala mutation (human); assay: yeast display flow cytometry, Myc-normalized;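 note: Anti-EGFRvIII monoclonal antibodies tested by flow cytometry on yeast displaying alanine-substituted fragments, two-color indirect fluorescence with anti-Myc signal tracking fusion protein expression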
T16 construct: mutation is already in the entry
T16 peptide: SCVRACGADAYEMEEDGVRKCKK
From the text: as §6, §7

[25] = target: T17, EGFRvIII amino acid residues 15 to 37 with Asp30 to Ala mutation (human); assay: yeast display flow cytometry, Myc-normalized;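 note: Anti-EGFRvIII monoclonal antibodies tested by flow cytometry on yeast displaying alanine-substituted fragments, two-color indirect fluorescence with anti-Myc signal tracking fusion protein expression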
T17 construct: mutation is already in the entry
T17 peptide: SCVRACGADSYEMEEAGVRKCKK
From the text: as §6, §7

[26] = target: T18, EGFRvIII amino acid residues 15 to 37 with Lys37 to Ala mutation (human); assay: yeast display flow cytometry, Myc-normalized
T18 construct: mutation is already in the entry
T18 peptide: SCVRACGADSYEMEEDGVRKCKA
From the text: as §6, §7

[27] = target: T19, EGFRvIII amino acid residues 15 to 37 with Gly21 to Ala mutation (human); assay: yeast display flow cytometry, Myc-normalized
T19 construct: mutation is already in the entry
T19 peptide: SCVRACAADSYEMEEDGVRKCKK
From the text: as §6, §7

[28] = target: T20, EGFRvIII amino acid residues 15 to 37 with Cys20 to Ala mutation (human); assay: yeast display flow cytometry, Myc-normalized
T20 construct: mutation is already in the entry
T20 peptide: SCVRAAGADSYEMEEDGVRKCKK
From the text: as §6, §7

[29] = target: T21, EGFRvIII amino acid residues 15 to 37 with Ser15 to Ala mutation (human); assay: yeast display flow cytometry, Myc-normalized
T21 construct: mutation is already in the entry
T21 peptide: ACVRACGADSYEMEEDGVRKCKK
From the text: as §6, §7

[30] = target: T22, EGFRvIII amino acid residues 15 to 37 with Glu28 to Ala mutation (human); assay: yeast display flow cytometry, Myc-normalized
T22 construct: mutation is already in the entry
T22 peptide: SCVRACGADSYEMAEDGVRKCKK
From the text: as §6, §7

[31] = target: T23, EGFRvIII amino acid residues 15 to 37 with Glu29 to Ala mutation (human); assay: yeast display flow cytometry, Myc-normalized
T23 construct: mutation is already in the entry
T23 peptide: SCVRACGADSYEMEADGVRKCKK
From the text: as §6, §7

[32] = target: T24, EGFRvIII amino acid residues 15 to 37 with Arg18 to Ala mutation (human); assay: yeast display flow cytometry, Myc-normalized
T24 construct: mutation is already in the entry
T24 peptide: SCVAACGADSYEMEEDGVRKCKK
From the text: as §6, §7

[33] = target: T25, EGFRvIII amino acid residues 15 to 37 with Tyr25 to Ala mutation (human); assay: yeast display flow cytometry, Myc-normalized
T25 construct: mutation is already in the entry
T25 peptide: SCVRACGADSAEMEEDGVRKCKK
From the text: as §6, §7

[34] = target: T26, EGFRvIII amino acid residues 15 to 37 with Asp23 to Ala mutation (human); assay: yeast display flow cytometry, Myc-normalized
T26 construct: mutation is already in the entry
T26 peptide: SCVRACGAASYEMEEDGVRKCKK
From the text: as §6, §7

[35] = target: T6, EGFRvIII, full length, overexpressed on …; assay: flow cytometry dose-response on U87MG EGFRvIII cells, apparent Kd (n=3)
Method: Prior to analysis, cells were plated such that they were not more than 80% confluent on the day of analysis. Unless otherwise stated, all media are kept are 4° C. and all incubations are performed on wet ice. Cells were washed in PBS, harvested by the addition of cell dissociation buffer (Sigma), centrifuged and resuspended in complete medium at a cell density of 2×10⁶ cells/mL. Fifty μL/well of cells were distributed in a polypropylene v-bottom 96 well plate and serial 1/3 dilutions of purified mAbs starting at 100 nM were added and incubated for 2 hours. […] Cells were washed and re-suspended in medium containing Propidium iodide to exclude dead cells from analysis. Samples were filtered through a 60 μm nylon mesh filter plate (Millipore, Ireland) to remove cell aggregates. […]
as §5

[36] = target: T6, EGFRvIII, full length, overexpressed on …; assay: flow cytometry dose-response on DKMG EGFRvIII cells, apparent Kd (n=1)
Method: as §4
(§8) These cells were grown in RPMI and 10% fetal bovine serum using standard culturing conditions.

[37] = target: T5, wild type human EGFR, full length, …; assay: flow cytometry dose-response, U87MG EGFR wt cells
Method: as §4, §5

[38] = target: T6, EGFRvIII, full length, overexpressed on …; assay: flow cytometry dose-response on DKMG EGFRvIII cells (n=1)
Method: as §4, §8

B1: 13.1.2 mIgG2a (antibody, V domains shown)
VH: QVQLVESGGGVVQPGRSLRLSCAASGFTFSSYGMHWVRQAPGKGLEWVAVIWYDGSNKYYVDSVKGRFTISRDNSKNTLYLQMNSLRAEDTAVYYCARDGWQQLAPFDYWGQGTLVTVSS
VL: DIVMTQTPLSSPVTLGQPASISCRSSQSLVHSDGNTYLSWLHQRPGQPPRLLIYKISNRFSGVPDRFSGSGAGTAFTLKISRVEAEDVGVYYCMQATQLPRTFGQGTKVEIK
[1]
  binding result: no binding
[2]
  binding result: no binding
[3]
  ELISA absorbance 405 nm: 0.009 A405
[4]
  ELISA absorbance 405 nm: 1.29 A405
[5]
  ELISA absorbance 405 nm: 2.09 A405
[6]
  ELISA absorbance 405 nm: 0.007 A405
[7]
  binding result: no binding (tested: 100 nM highest concentration)
[8]
  ELISA absorbance 405 nm: 0.003 A405
[9]
  ELISA absorbance 405 nm: 1.49 A405
[10]
  ELISA absorbance 405 nm: 1.5 A405
[11]
  ELISA absorbance 405 nm: 0.002 A405
[12]
  Kd: 4.2 nM

B2: F265-9C9 (antibody, V domains shown)
VH: QVQLQQPGAELVKPGASVKLSCKASGYTFTSYWMHWVKQRPGQDLEWIGEIDPSDSYTNYNQKFKGKATLTVDKSSSTAYIQLSSLTSEDSALYYCARFDFAYWGQGTLVTVSA
VL: EIVLTQSPTLMAASPGEKVTITCSVSSSISSSNLHWYQQKSETSPKPWIYDTSNLASGVPIRFSGSGSGTSYSLTISSVEAEDAATYYCQQWSSYPLTFGSGTKLEIK
notes: Mouse hybridoma mAb
[3]
  ELISA absorbance 405 nm: 0.21 A405
[4]
  ELISA absorbance 405 nm: 1.2 A405
[5]
  ELISA absorbance 405 nm: 1.72 A405
[6]
  ELISA absorbance 405 nm: 0.064 A405
[13]
  binding result: binds
[8]
  ELISA absorbance 405 nm: 0.038 A405
[9]
  ELISA absorbance 405 nm: 1.29 A405
[10]
  ELISA absorbance 405 nm: 0.503 A405
[11]
  ELISA absorbance 405 nm: 0.003 A405
[12]
  Kd: > 200 nM
[14]
  binding result: no binding (tested: 0-15% of wild-type binding)
[15]
  binding result: no binding (tested: 0-15% of wild-type binding)
[16]
  binding result: no binding (tested: 0-15% of wild-type binding)
[17]
  binding result: no binding (tested: 0-15% of wild-type binding)
[18]
  binding result: no binding (tested: 0-15% of wild-type binding)
[19]
  binding result: no binding (tested: 0-15% of wild-type binding)
[20]
  % survival (DM1 secondary-conjugate ADC surrogate assay, vs mouse IgG): 82%
[21]
  % internalization (pHrodo surrogate assay, vs 225 mAb): 87%
[22]
  % of binding vs wild-type fragment 15-37: 159%
[23]
  % of binding vs wild-type fragment 15-37: 87.5%
[24]
  % of binding vs wild-type fragment 15-37: 211%
[25]
  % of binding vs wild-type fragment 15-37: 22.6%
[26]
  % of binding vs wild-type fragment 15-37: 108%
[27]
  % of binding vs wild-type fragment 15-37: 160%
[28]
  % of binding vs wild-type fragment 15-37: 51.9%
[29]
  % of binding vs wild-type fragment 15-37: 115%
[30]
  % of binding vs wild-type fragment 15-37: 87.1%
[31]
  % of binding vs wild-type fragment 15-37: 138%
[32]
  % of binding vs wild-type fragment 15-37: 205%
[33]
  % of binding vs wild-type fragment 15-37: 152%
[34]
  % of binding vs wild-type fragment 15-37: 63.2%

B3: hFc-4E11 (antibody, human IgG1, kappa, V domains shown)
VH: DVQLQESGPGLVKPSQSLSLTCTVTGYSITSDYAWNWIRQFPGNKLEWMGYIGYNGRTSYNPSLKSRISITRDTSKNQFFLQLNYVTTEDTATFYCARLGRGFAYWGQGTLVTVSA
VL: DILMTQSPSSMSVSLGDTVSITCHASQGINSNIGWLLQKPGKSFKGLIYHGTNLEDGVPSRFSGSGSGTDYSLTISSLESEDFADYYCVQYAQFPYTFGGGTKLEIKR
notes: Chimeric antibody, mouse variable regions on human IgG1 / human kappa, produced in CHO cells; also called chimeric 4E11
[35]
  Kd: 2.6 nM
[36]
  Kd: 1.43 nM
[37]
  binding result: no binding
[38]
  Bmax: 12100
